Laboratory results taken from patent US6132722A, “Recombinant antibody-enzyme fusion proteins” (Bristol-Myers Squibb Company, priority 1998, dated 2000).

Experiments:
3677 melanoma cells = test: In vitro cytotoxicity, [3H]thymidine incorporation; format: cell-based, human
Description: In Vitro Cytotoxicity. 3677 melanoma cells were plated into 96-well microliter plates (10^4 cells/well in 100 μL of Iscove's Modified Dulbecco's Medium (IMDM) with 10% fetal bovine serum, penicillin (60 μg/ml), and streptomycin (100 μg/ml) and allowed to adhere overnight. For blocking experiments, the cells were incubated with unconjugated L49 at 1 μM for 30 min. prior to treatment with the L49 conjugates. The cells were treated with L49-sFv-bL or L49 Fab'-bL at 10 nM. After 30 min. at 4° C., the plates were washed three times with antibiotic-free RPMI 1640 media (Gibco) with 10% fetal bovine serum, and then varying concentrations of CCM (FIG. 1) were added. CCM and PDM were also added to cells treated with media alone. After 1 h at 37° C., cells were washed three times with IMDM and incubated approximately 18 h at 37° C. The cells were then pulsed for 12 h with [^3 H] thymidine (1 μCi/well) at 37° C., detached by freezing at -20° C. and thawing, and harvested onto glass fiber filter mats using a 96-well harvester (Wallac, Gaithersburg, Md.). Radioactivity was counted using a LKB Wallac β-plate counter.
In Vitro Cytotoxicity. […] Radioactivity was counted using a LKB Wallac β-plate counter.
The cytotoxic effects of L49-sFv-bL in combination with CCM were determined on 3677 human melanoma cells, which express the p97 antigen. […]

3677 melanoma xenografts = test: In vivo therapy of established s.c. 3677 melanoma xenografts; design: species or system nude mice
Description: FIGS. 10A-10D. Therapeutic effects of L49-sFv-bL/CCM combinations in nude mice (six mice/group) with subcutaneous 3677 melanoma xenografts. Conjugates were injected, followed at various times by CCM (arrows on the X-axis). […] FIG. 10A. L49-sFv-bL (1 mg/kg/injection) 12 h before CCM. FIG. 10B. L49-sFv-bL (1 mg/kg/injection) 24 h before CCM. FIG. 10C. L49-sFv-bL (4 mg/kg/injection) 24 h before CCM. FIG. 10D. L49-sFv-bL (4 mg/kg/injection) 48 h before CCM.
In Vivo Therapy Experiments. 3677 tumor-bearing mice (subcutaneous implants, six animals/group, average tumor volume 130 mm^3) were injected with L49-sFv-bL (i.v., 7-8 days post tumor implant), followed 12-48 h later by CCM using doses of fusion protein and prodrug as indicated in the Results section. Treatment with L49-sFv-bL+CCM was repeated 1 week later. Animals were monitored 1-2 times/week for body weight, general health, and tumor growth. Tumor volume was estimated using the formula: longest length×perpendicular dimension^2 /2. Cures were defined as an established tumor that, after treatment, was not palpable for ≥10 tumor volume doubling delays (≥40 days in the 3677 tumor model). Maximum tolerated doses led to less than 20% weight loss, no treatment-related deaths, and were within 50% of the dose where such events took place.
Therapeutic Activity. In vivo therapy experiments were performed using the L49-sFv-bL/CCM combination in nude mice with established s.c. 3677 tumors. […] In the experiments reported here, conjugate treatment was initiated 7-8 days after tumor implant, at which time the tumors were approximately 130 mm^3 in volume. CCM was then administered 12, 24, or 48 h later, and the treatment protocol was repeated after 1 week. Maximum tolerated doses are defined as those that led to less than 20% weight loss, no treatment-related deaths, and were within 50% of the dose where such events took place. A tumor was considered as having been cured once it was not palpable for at least 10 tumor volume doubling times, based on the tumor growth of untreated animals (tumor volume doubling time was 4 days). If an animal was removed from the experiment because of tumor growth, the data from the entire group was no longer plotted, but the remaining animals were followed for tumor size and general health.

[1] = Michaelis-Menten kinetic analysis of bL activity with nitrocefin as substrate; format: biochemical
Source text: Enzymatic activity assays of the bL portion of L49-sFv-bL were undertaken using nitrocefin as the enzyme substrate (Table 1). […] Thus, both the binding of the L49 antibody and enzymatic activity of the E. cloacae r2-1 bL were preserved in the fusion protein.

[2] = L49-sFv-bL 1 mg/kg/injection, CCM 75 mg/kg/injection 12 h later

B1: L49-sFv-bL: recombinant fusion protein: L49 anti-p97 single-chain Fv (VH-218 linker-VL) fused to r2-1 mutant E. cloacae β-lactamase, SEQ ID NO: 20 (protein)
chain: MKYLLPTAAAGLLLLAAQPAMAEVQLQESGPSLVKPSQTLSLTCSVTGDSITSGYWNWIRKFPGNKLEYMGYISDSGITYYNPSLKSRISITRDTSKNQYYLQLNFVTAEDTATYNCARRTLATYYAMDYWGQGTSVTVSSGSTSGSGKPGSGEGSTKGDFVMTQTPLSLPVSLGDQASISCRASQSLVHSNGNTYLHWYLQKPGQSPKLLIYRVSNRFSGVPDRFSGSGSGTDFTLKISRVEAEDLGVYFCSQSTHVPPTFGGGTKLEIKRTPVSEKQLAEVVANTITPLMKAQSVPGMAVAVIYQGKPHYYTFGKADIAANKPVTPQTLFELGSISKTFTGVLGGDAIARGEISLDDAVTRYWPQLTGKQWQGIRMLDLATYTAGGLPLQVPDEVTDNASLLRFYQNWQPQWKPGTTRLYANASIGLFGALAVKPSGMPYEQAMTTRVLKPLKLDHTWINVPKAEEAHYAWGYRDGKAVRVSPGMLDAQAYGVKTNVQDMANWVMANMAPENVADASLKQGIALAQSRYWRIGSMYQGLGWEMLNWPVEANTVVETSFGNVALAPLPVAEVNPPAPPVKASWVHKTGSTGGFGSYVAFIPEKQIGIVMLANTSYPNPARVEAAYHILEALQTSEFE
cytotoxic activity of conjugate + CCM combination (3677 melanoma cells; conjugate 10 nM, washed, then CCM 1 h): equivalent in activity to PDM | activation of CCM on cells previously saturated with L49 mAb (3677 melanoma cells; unconjugated L49 1 μM before the fusion protein): did not activate CCM | toxicity (3677 melanoma xenografts; CCM 24 h post conjugate, both cases (FIG. 10B, 10C)): no evidence of toxicity | cures in the group of six mice (3677 melanoma xenografts; [2]): four | tumor response of the remaining two animals (3677 melanoma xenografts; [2]): partial regressions | tumor cures (3677 melanoma xenografts; L49-sFv-bL 1 mg/kg/injection, CCM 125 and 175 mg/kg/injection 12 h later, repeated after 1 week): all of the animals | tumors cured (3677 melanoma xenografts; L49-sFv-bL 1 mg/kg/injection, increased CCM dose 24 h later (FIG. 10B)): the majority of tumors were cured | animals cured, of six (3677 melanoma xenografts; L49-sFv-bL 4 mg/kg/injection, CCM 275 mg/kg/injection 48 h later): three | tumors cured (3677 melanoma xenografts; L49-sFv-bL 4 mg/kg/injection, CCM 24 h later (FIG. 10C)): the majority of tumors were cured | tumor regressions (3677 melanoma xenografts; L49-sFv-bL 4 mg/kg/injection, CCM 48 h later (FIG. 10D)): all of the mice | toxicity (3677 melanoma xenografts; L49-sFv-bL then CCM 75, 125 or 175 mg/kg/injection 12 h later): no apparent toxicities | Km [1]: 19 µM | enzymatic activity relative to the mutant bL enzyme [1]: retained the full enzymatic activity | kcat [1]: 232 s⁻¹
